Measurements published in publication PMC2880831.

Target: EGR1 (UniProt P18146 1-543)
Experiment: EMSA

EGR1, sequence (P18146 whole entry): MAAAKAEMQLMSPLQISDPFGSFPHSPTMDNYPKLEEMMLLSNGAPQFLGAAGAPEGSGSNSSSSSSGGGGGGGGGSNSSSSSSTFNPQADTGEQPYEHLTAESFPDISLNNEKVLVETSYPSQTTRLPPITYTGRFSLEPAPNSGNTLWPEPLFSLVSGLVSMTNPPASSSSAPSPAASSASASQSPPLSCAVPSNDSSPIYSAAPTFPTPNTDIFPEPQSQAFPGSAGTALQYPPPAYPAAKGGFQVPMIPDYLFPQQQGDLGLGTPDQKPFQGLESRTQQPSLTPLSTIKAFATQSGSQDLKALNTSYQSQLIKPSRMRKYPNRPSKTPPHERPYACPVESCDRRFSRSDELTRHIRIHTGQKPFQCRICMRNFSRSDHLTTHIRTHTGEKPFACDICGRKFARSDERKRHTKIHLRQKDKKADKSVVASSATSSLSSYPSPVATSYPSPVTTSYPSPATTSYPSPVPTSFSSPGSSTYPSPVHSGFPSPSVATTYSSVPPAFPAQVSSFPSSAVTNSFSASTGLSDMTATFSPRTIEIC

B1: FAP promoter WT -225~-205 (dsDNA)
DNA 1: CAAGAACGCCCCCAAAATCT
DNA 2: AGATTTTGGGGGCGTTCTTG
B1: binds.
